For test [1], the target named is human CD70 (human) (UniProt P32970). As to the kind of experiment: FACS binding; Raji cells. On the technique in general: A flow cytometer gives signals particle by particle.
For test [2] the target is unchanged. As to the kind of experiment: FACS binding; U266 cells.
For test [3] the target is unchanged. Nature of the test: FACS binding; CHO-CD70 cells.

human CD70 (human), sequence (P32970 whole entry): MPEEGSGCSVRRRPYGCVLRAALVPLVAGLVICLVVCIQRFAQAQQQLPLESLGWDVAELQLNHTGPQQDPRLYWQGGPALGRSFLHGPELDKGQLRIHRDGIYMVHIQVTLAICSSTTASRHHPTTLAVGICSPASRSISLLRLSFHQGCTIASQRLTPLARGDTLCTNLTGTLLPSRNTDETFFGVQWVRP

Broadly, the EC50 is the midpoint of the concentration-response curve. Read a high EC50 as a less potent agent. On to Cusatuzumab, for which the EC50 in test [1] stood at 2.16 nM; in test [2], 0.671 nM.
As for IMM40C, the EC50 in test [2] came to 0.0715 µg/mL; in test [3], 0.501 µg/mL.

These data come from US20230112123A1.
